Source: US20250320480A1, “Immunoglobulin Cleaving Enzyme” (priority 2021, published 2025)
“Also recorded” adds a separate entry of the source. Non-standard residues stand in square brackets, D forms with d. Residues, ends and D or L forms follow the SMILES beside them. *: point of attachment. Sta = CC(C)C[C@H](N)[C@@H](O)CC(=O)O; Isovaleryl = CC(C)CC(=O)*

Columns and labels:
[1] = system: IdeSork2.0; test: Protease inhibitor assay; format: biochemical, Streptococcus krösus; conditions: IgG1 pre-incubated with inhibitor, IdeSork2.0 1:5, overnight at 37° C., SDS-PAGE
Procedure: FIG. 4. Protease inhibitor sensitivity of IdeSork2.0.
IgG1 (trastuzumab) was pre-incubated with a set of protease inhibitors (G-Biosciences) before addition of IdeSork2.0 (of SEQ ID NO: 3) (1:5), and the mixture was allowed to incubate overnight at 37° C. before analysis on SDS-PAGE.

[2] = system: casein; test: General protease activity, EnzChek protease assay; format: biochemical; conditions: casein substrate; FabULOUS 5 μg, FabRICATOR 10 μg, IdeSORK2.0 10 μg
Procedure: FIG. 2. General protease activity. General protease activity was measured with the EnzCHECK protease assay, using casein as a substrate.
General protease activity was determined using the EnzChek Protease Assay kit, according to manufacturer's instructions. As a positive control the general protease FabULOUS (SpeB, 5 μg) was used, and as a negative control the IgG-specific protease FabRICATOR (IdeS, 10 μg). IdeSORK2.0 was added to a total quantity of 10 μg.

[3] = target: human IgG1
[4] = target: human IgG2
[5] = system: IgG2; test: Comparison to other IgG proteases: IgG2; format: biochemical; conditions: SDS-PAGE
Procedure: (§1) FIG. 10. IdeSork2.0 is having a similar activity compared to IdeS and IdeZ. To investigate if IdeSork2.0 is hydrolyzing IgG in a similar way as IdeS and IdeZ they were all incubated against IgG1 and IgG2 and analyzed on SDS-PAGE. The cleavage patterns look identical, with both IdeSork2.0 and IdeS having less activity towards IgG2.
(§2) To further look into the activity of IdeSORK2.0, its activity was compared with IdeS and IdeZ against both IgG1 and IgG2.

[6] = system: IgG1; test: Comparison to other IgG proteases: IgG1; format: biochemical; conditions: SDS-PAGE
Procedure: as §1, §2

[7] = system: IgG in human serum; test: Activity of IgG hydrolases in human serum; format: biochemical; conditions: serum (100%), E:S 1:40, 0-4 hours at 37° C., non-reduced SDS-PAGE
Procedure: FIG. 15. Activity of IgG hydrolases in human serum. Serum (100%) was spiked with IgG hydrolases and activity was analyzed over time using non-reduced SDS-PAGE.
For serum activity assays, an E: S ratio of 1:40 (assuming 10 mg/mL IgG in serum) was used, incubating 0-4 hours at 37° C. before analysis on a non-reduced SDS-PAGE. All enzymes were supplied by Genovis AB.

[8] = system: human IgG; conditions: in particular when cleaving IgG2; cited from earlier work
[9] = target: monoclonal IgG4
[10] = target: porcine IgG
[11] = target: sheep IgG
[12] = target: human IgA
[13] = target: mouse IgG2b
[14] = target: horse IgG
[15] = target: dog IgG
[16] = target: mouse IgG1
[17] = target: cow IgG
[18] = target: IVIG
[19] = target: mouse IgG2a
[20] = target: denatured and reduced IgG
[21] = target: IgG
[22] = target: rat IgG
[23] = target: guinea pig IgG

CC(C)CC(=O)N[C@H](C(=O)N[C@H](C(=O)N[C@@H](CC(C)C)[C@@H](O)CC(=O)N[C@@H](C)C(=O)N[C@@H](CC(C)C)[C@@H](O)CC(=O)O)C(C)C)C(C)C [pepstatin] (Isovaleryl-VV[Sta]A[Sta]-OH)
Inhibition of IdeSork2.0 hydrolysis of IgG1 (trastuzumab) [1]: besides aprotinin, EDTA, and pepstatin

O=C(O)CN(CCN(CC(=O)O)CC(=O)O)CC(=O)O [EDTA]
Inhibition of IdeSork2.0 hydrolysis of IgG1 (trastuzumab) [1]: unaffected; also recorded: besides aprotinin, EDTA, and pepstatin

aprotinin
Inhibition of IdeSork2.0 hydrolysis of IgG1 (trastuzumab) [1]: besides aprotinin, EDTA, and pepstatin

FabULOUS: general protease (SpeB), positive control [reference compound]
General protease activity (signal) [2]: high signal

CC(C)C[C@H](NC(=O)[C@@H](O)[C@H](N)Cc1ccccc1)C(=O)O [Bestatin]
Inhibition of IdeSork2.0 hydrolysis of IgG1 (trastuzumab) [1]: only partly inhibitory

B1: IdeS (Immunoglobulin G-degrading enzyme of S. pyogenes) (protein)
chain: DSFSANQEIRYSEVTPYHVTSVWTKGVTPPANFTQGEDVFHAPYVANQGWYDITKTFNGKDDLLCGAATAGNMLHWWFDQNKDQIKRYLEEHPEKQKINFNGEQMFDVKEAIDTKNHQLDSKLFEYFKEKAFPYLSTKHLGVFPDHVIDMFINGYRLSLTNHGPTPVKEGSKDPRGGIFDAVFTRGDQSKLLTSRHDFKEKNLKEISDLIKKELTEGKALGLSHTYANVRINHVINLWGADFDSNGNLKAIYVTDSDSNASIGMKKYFVGVNSAGKVAISAKEIKEDNIGAQVLGLFTLSTGQDSWNQTN
hydrolysis of IgG, SDS-PAGE [3]: All enzymes were able to hydrolyze the antibodies in seemingly an identical fashion, though slightly different efficiently
hydrolysis of IgG, SDS-PAGE [4]: All enzymes were able to hydrolyze the antibodies in seemingly an identical fashion, though slightly different efficiently

B2: IdeS: Immunoglobulin G-degrading enzyme of S. pyogenes, IgG-specific cysteine protease (protein)
chain: DSFSANQEIRYSEVTPYHVTSVWTKGVTPPANFTQGEDVFHAPYVANQGWYDITKTFNGKDDLLCGAATAGNMLHWWFDQNKDQIKRYLEEHPEKQKINFNGEQMFDVKEAIDTKNHQLDSKLFEYFKEKAFPYLSTKHLGVFPDHVIDMFINGYRLSLTNHGPTPVKEGSKDPRGGIFDAVFTRGDQSKLLTSRHDFKEKNLKEISDLIKKELTEGKALGLSHTYANVRINHVINLWGADFDSNGNLKAIYVTDSDSNASIGMKKYFVGVNSAGKVAISAKEIKEDNIGAQVLGLFTLSTGQDSWNQTN
Hydrolysis of IgG2 [5]: able to hydrolyze; also recorded: less activity
General protease activity (signal) [2]: almost no signal
Hydrolysis of IgG1 [6]: able to hydrolyze
Immunoglobulin cleavage activity in the presence of human serum [7]: immunoglobulin cleavage activity

B3: IdeZ (protein)
chain: DDYQRNATEAYAKEVPHQITSVWTKGVTPLTPEQFRYNNEDVIHAPYLAHQGWYDITKAFDGKDNLLCGAATAGNMLHWWFDQNKTEIEAYLSKHPEKQKIIFNNQELFDLKAAIDTKDSQTNSQLFNYFRDKAFPNLSARQLGVMPDLVLDMFINGYYLNVFKTQSTDVNRPYQDKDKRGGIFDAVFTRGDQTTLLTARHDLKNKGLNDISTIIKQELTEGRALALSHTYANVSISHVINLWGADFNAEGNLEAIYVTDSDANASIGMKKYFVGINAHGHVAISAKKIEGENIGAQVLGLFTLSSGKDIWQKLS
hydrolysis of IgG, SDS-PAGE [3]: All enzymes were able to hydrolyze the antibodies in seemingly an identical fashion, though slightly different efficiently
hydrolysis of IgG, SDS-PAGE [4]: All enzymes were able to hydrolyze the antibodies in seemingly an identical fashion, though slightly different efficiently

B4: IdeZ: IgG cysteine protease produced by Streptococcus equi ssp. zooepidemicus (protein)
chain: DDYQRNATEAYAKEVPHQITSVWTKGVTPLTPEQFRYNNEDVIHAPYLAHQGWYDITKAFDGKDNLLCGAATAGNMLHWWFDQNKTEIEAYLSKHPEKQKIIFNNQELFDLKAAIDTKDSQTNSQLFNYFRDKAFPNLSARQLGVMPDLVLDMFINGYYLNVFKTQSTDVNRPYQDKDKRGGIFDAVFTRGDQTTLLTARHDLKNKGLNDISTIIKQELTEGRALALSHTYANVSISHVINLWGADFNAEGNLEAIYVTDSDANASIGMKKYFVGINAHGHVAISAKKIEGENIGAQVLGLFTLSSGKDIWQKLS
Hydrolysis of IgG2 [5]: able to hydrolyze
Hydrolysis of IgG1 [6]: able to hydrolyze
IgG cysteine protease activity against human IgG [8]: considerably lower than that of IdeS
Immunoglobulin cleavage activity in the presence of human serum [7]: immunoglobulin cleavage activity

B5: IdeSORK2.0 (protein)
chain: MSKRKLLKKIEKKDTSSVLTQKKQTKTLWADGVQVDDKDFKPSTENFGTNYLAAEYGIGKGYYDINKKFDGTDDDLCSGVVAANQLHWWLDRNKDYIEKYRQQSKDNGVTIGNTDIFELNKLHDEDQSNFFDFIKKSFGNKFLQPERLLNMYINGYGYLTSQDKAKTSQPSPSKLNFFQKVFKNNLLTDKTPINDIDEFSSQTKNALQNHKVLAVSFASIKNRGLGHVVTVWGADFDENGKVVALYVTDSDDRSKNIGNAKLGMKKLRIEVSAQDSSTIKLTGFEDKNSGGSLRHLYSLSTGEQIWKKYFEETHHHHHH
hydrolysis of IgG, SDS-PAGE [9]: can also hydrolyze monoclonal IgG4
hydrolysis of IgG, SDS-PAGE [10]: only showed activity against horse and guinea pig IgG (no activity on porcine IgG)
hydrolysis of IgG, SDS-PAGE [11]: only showed activity against horse and guinea pig IgG (no activity on sheep IgG)
hydrolysis, SDS-PAGE [12]: IdeSORK2.0 is not active towards IgA
hydrolysis of IgG, SDS-PAGE [13]: but not mIgG1 or mIgG2b
hydrolysis of IgG, SDS-PAGE [14]: only showed activity against horse and guinea pig IgG
hydrolysis of IgG, SDS-PAGE [15]: only showed activity against horse and guinea pig IgG (no activity on dog IgG)
hydrolysis of IgG, SDS-PAGE [16]: but not mIgG1 or mIgG2b
hydrolysis of IgG, SDS-PAGE [17]: only showed activity against horse and guinea pig IgG (no activity on cow IgG)
hydrolysis of IgG [18]: Incubation with polyclonal IgG (e.g. IVIG) resulted in near complete hydrolysis
hydrolysis of IgG, SDS-PAGE [19]: the protease is active against mIgG2a
hydrolysis of IgG, SDS-PAGE [20]: IdeSORK2.0 is not active against denatured and reduced IgG
percentage hydrolysis of IgG [21]: A ratio of 1:40 hydrolyzes >95% of IgG in 30-60 minutes
hydrolysis of IgG, SDS-PAGE [22]: only showed activity against horse and guinea pig IgG (no activity on rat IgG)
hydrolysis of IgG, SDS-PAGE [23]: only showed activity against horse and guinea pig IgG
